Read-outs that look alike come from different tables or passages of the source.
Key:
[1] = biological target: Recombinant human cyclophilin A (human) (UniProt P62937); test: native MS
[2] = biological target: Recombinant human cyclophilin A (human) (UniProt P62937); test: native MS; remark: listed apart in the source

Recombinant human cyclophilin A (from UniProt P62937 1-165) (enzyme)
stoichiometry N [1]: 2
stoichiometry N [2]: 2

Reference: doi:10.1101/2020.10.06.328112
